Results on 5 molecules are retold here after patent publication US20060199761A1, “Insulin resistance improving agent” (Japan Science And Technology Agency, priority 2002, published 2006).

Data set [1] has as its system db/db mice. In words: Rosiglitazone treatment of db/db mice on high-fat diet (adiponectin expression, glucose tolerance test).
The subject of data set [2] is lipoatrophic mice. Briefly: Lipoatrophic mice (PPAR-γ+/− mice treated with HX531) with or without adiponectin, gAd or leptin. It is filed as in vivo, mouse. As to conditions: for Liver TG content / Serum FFA / Serum TG / Skeletal muscle TG content: HF diet; for insulin resistance (FIG. 8): mice without adipose tissue, administration at a physiological concentration; for hyperglycemia and hyperinsulinemia (insulin resistance index, FIG. 8): lipoatrophic mice, continuous systemic infusion. As to the method: (§1) The measurements of [^14C] CO2 production from [1-^14C] palmitic acid were performed using liver and muscle slices as described (Diabetes 47, 1841-1847 (1998)). Liver and muscle homogenates were prepared, and tissue triglyceride content was determined with an extract solution (CHCl3:CH3OH=2:1). The remainder of the liver and muscle was immediately frozen in liquid nitrogen and stored at −80° C. until measurement of the enzymatic activity of ACO. ACO activity in the light mitochondrial fraction of liver and muscle was measured by assay that was based on the H2O2 dependent oxidation of leuco-dichlorofluorescein (Diabetes 47, 1841-1847 (1998)).
Unless otherwise described herein, administration was performed through continuous systemic infusion (pump) in combination with a high-fat (HF) diet for the final twelve days of the six-week HX531 treatment.
FIGS. 9 and 10 show mRNAs of fatty-acid translocase (FAT)/CD36, ACO, UCP2, and PPAR-α in mouse skeletal muscle and in liver, respectively. […] HX531 was administered as a 0.1% food admixture. Mice were stimulated with or without 1 U/g body weight of insulin for two minutes. Lysates were subjected to immunoprecipitation (IP) and immunoblotting through use of the antibodies described in Mol. Cell. Biol. 16, […] (1996).

For data set [3], the system named is lipoatrophic mice. The data set is described as above. The data set is classed as in vivo, mouse. As to conditions: HX531 for four weeks.
Another data set relates to PPAR-γ+/− mice. Briefly: Adiponectin infusion in PPAR-γ+/− mice on high-fat diet without HX531 (tissue TG, serum FFA/TG). The data set is classed as in vivo, mouse. Particulars: HF diet, no HX531, Ad 50 μg/day continuous infusion 12 days. On the procedure:
as §1
While PPAR-γ^+/− mice were treated with HX531 for six weeks (+) or untreated (−), recombinant full-length adiponectin (Ad), gAd, or leptin (Lep) was administered to each PPAR-γ^+/− mouse at a predetermined dose (μg/day). Administration was performed through continuous systemic infusion in combination with the high-fat (HF) diet for the final twelve days of the six-week HX531 treatment (six weeks).

The subject of data set [4] is KKA^y mice. Briefly: Adiponectin administration to KKAy mice on high-fat diet. The data set is classed as in vivo, mouse. Particulars: for ACO activity, liver / ACO activity, skeletal muscle / Fatty acid oxidation [14C] palmitate→CO2, liver / Fatty acid oxidation [14C] palmitate→CO2, skeletal muscle / Rectal temperature / Serum FFA / Serum TG / TG content, liver / TG content, skeletal muscle: high fat diet, two weeks. As to the method: as §1
The mice were fed an HC or HF diet.
The following values were determined through use of KKA^y mice: acyl-CoA oxidase (ACO) activity and fatty acid oxidation in the skeletal muscle and in the liver, tissue triglyceride content in the skeletal muscle and in the liver, and serum free fatty acid level and serum triglyceride level. Mice were fed with high fat diet, and full-length adiponectin (Ad) or adiponectin globular domain (gAd) was administered to each mice at a dose shown in Table 2 for two weeks.

In data set [5] the test system is db/db mice.
Procedure: (§2) Adiponectin or leptin was administered to mice through intraperitoneal injection or continuous systemic infusion as described (Nature 401, 73-76 (1999)). An Alzet micro-osmotic pump (model 1002, Alza) was inserted subcutaneously in the back of each mouse. A daily dose (shown in Figures) of recombinant leptin (Sigma) or adiponectin was dissolved in a total volume of 0.1 mL of PBS, and the solution was delivered to mice through the pump for twelve days.
(§3) The areas of glucose and insulin curves were calculated by multiplying the cumulative mean height of the glucose values (1 mg/ml=1 cm) and insulin values (1 ng/ml=1 cm), respectively, by time (60 min=1 cm) (Am. J. Physiol. 240, E482-488 (1981)).
(§4) The mice were fed an HC or HF diet. In addition, Ad or gAd was administered, or none of these was administered, to the mice at a predetermined dose (μg/day).
Data set [6] deals with KKA^y mice. Briefly: Adiponectin administration to KKAy mice on high-fat diet. The data set is classed as in vivo, mouse. As to conditions: adiponectin-administered KKAy mice.
In a further data set the test system is KK mice. In words: Adiponectin administration to KK mice (serum leptin). It is filed as in vivo, mouse.
Setting [7] is: PPAR-γ+/− mice, HX531 alone for 6 weeks.
Where [8] appears, read: HX531 6 weeks + Ad 50 μg/day continuous infusion final 12 days.
Where [9] appears, read: db/db mice, adiponectin replenishment.
Setting [10] is: HX531 6 weeks + gAd 2.5 μg/day continuous infusion final 12 days.
Where [11] appears, read: gAd at a low concentration, mRNA (FIG. 9).
Setting [12] is: normal C57 mice, high-fat diet, two weeks.

Procedure for C57 mice: as §2, §3, §4
Procedure for KK mice: as §2

For the molecule `CN(CCOc1ccc(CC2SC(=O)NC2=O)cc1)c1ccccn1` (stereo not drawn) [Rosiglitazone], in the data set with db/db mice [1], the adipose tissue mass came out at 2.84 ± 0.16 g and the body weight worked out at 47.9 ± 1.0 g.
On to `CN1c2ccc([N+](=O)[O-])cc2N=C(c2ccc(C(=O)O)cc2)c2cc3c(cc21)C(C)(C)CCC3(C)C` [HX531, reference compound], for which, in the data set on lipoatrophic mice [2] (setting [7]), the “Liver TG content” value turned out to be 19.36 ± 1.23 mg/g tissue, the “Serum FFA” value was determined as 1.48 ± 0.25 mEq/L, the “Serum TG” value was found to be 201.4 ± 25.3 mg/dL and the “Skeletal muscle TG content” value stood at 15.96 ± 1.47 mg/g tissue. Moreover, the “lowering of expression of lipoprotein lipase (LPL) in WAT” value with lipoatrophic mice [2] (PPAR-γ+/− mice, HX531 for three weeks) was not below 90%. The “visible WAT” value in the data set on lipoatrophic mice [3] is listed as “disappearance of visible WAT”.
For the molecule leptin: recombinant leptin (Sigma), in the data set with lipoatrophic mice [2], the “insulin resistance (FIG. 8)” value is listed as “alleviate their insulin resistance, albeit partially”.

B1: Ad: recombinant full-length mouse adiponectin, histidine-tagged fusion protein expressed in bacteria (protein, UniProt Q15848 19-244, looked up)
Adiponectin: ETTTQGPGVLLPLPKGACTGWMAGIPGHPGHNGAPGRDGRDGTPGEKGEKGDPGLIGPKGDIGETGVPGAEGPRGFPGIQGRKGEPGEGAYVYRSAFSVGLETYVTIPNMPIRFTKIFYNQQNHYDGSTGKFHCNIPGLYYFAYHITVYMKDVKVSLFKKDKAMLFTYDQYQENNVDQASGSVLLHLEVGDQVWLQVYGEGERNGLYADNDNDSTFTGFLLYHDTN
Consider B1, for which, in the data set on PPAR-γ+/− mice, the “Liver TG content” value is reported as 6.45 ± 0.26 mg/g tissue, the “Serum FFA” value is given as 0.35 ± 0.02 mEq/L, the “Serum TG” value was found to be 60.5 ± 6.0 mg/dL and the “Skeletal muscle TG content” value came to 5.47 ± 0.32 mg/g tissue. Moreover, in the data set with lipoatrophic mice [2] (setting [8]), the “Liver TG content” value turned out to be 16.19 ± 0.72 mg/g tissue, the “Serum FFA” value is on record as 0.61 ± 0.13 mEq/L, the “Serum TG” value stood at 106.6 ± 18.1 mg/dL and the “Skeletal muscle TG content” value is given as 7.74 ± 0.65 mg/g tissue. The “insulin-induced tyrosine phosphorylation of insulin receptor and insulin-receptor substrate 1 and insulin-stimulated phosphorylation of Akt kinase in skeletal muscle” value in the data set on lipoatrophic mice [2] (adiponectin-administered lipoatrophic mice (FIG. 11)) is “increase”. Besides, in the data set with lipoatrophic mice [2], the “hyperglycemia and hyperinsulinemia (insulin resistance index, FIG. 8)” value is listed as “significantly ameliorated”; the “insulin resistance (FIG. 8)” value is on record as “not sufficient to completely ameliorate insulin resistance”. Moreover, in the data set on KKA^y mice [4] (Ad 50 μg/day), the “ACO activity, liver” value was determined as 3.04 ± 0.85 nmol/mg/min; the “ACO activity, skeletal muscle” value was 0.37 ± 0.04 nmol/mg/min; the “Fatty acid oxidation [14C] palmitate→CO2, liver” value was found to be 2.92 ± 0.29 nmol/g/h; the “Fatty acid oxidation [14C] palmitate→CO2, skeletal muscle” value is listed as 3.95 ± 0.58 nmol/g/h. Besides, in the data set on KKA^y mice [4] (Ad 50 μg/day), the Rectal temperature was determined as 37.3 ± 0.2 °C; the “Serum FFA” value is given as 0.67 ± 0.09 mEq/L; the “Serum TG” value turned out to be 101.3 ± 19.7 mg/dL; the “TG content, liver” value was 16.15 ± 0.83 mg/g tissue. Besides, the “TG content, skeletal muscle” value in the data set on KKA^y mice [4] (Ad 50 μg/day) is recorded as 8.75 ± 0.58 mg/g tissue. Besides, in the data set on C57 mice (mouse, in vivo), the serum adiponectin levels result was “partially restored”. The “expression of leptin in WAT” value in the data set on C57 mice (wild-type mice) was “did not alter”. The “hyperglycemia and hyperinsulinemia induced by high-fat diet (GTT)” value in the data set with C57 mice (wild-type mice on high-fat diet, continuous systemic infusion of low doses) is “significantly ameliorated”. Further, in the data set with db/db mice [5] (setting [9]), the “hyperinsulinemia (GTT, FIG. 14)” value is “significantly ameliorated” and the “leptin receptor deficiency-induced hyperglycemia (GTT, FIG. 13)” value is “significantly ameliorated”. Further, the serum adiponectin levels result in the data set on db/db mice [5] (mouse, in vivo) was “partially restored”. In the data set on KKA^y mice [6], the “expression of enzymes involved in β-oxidation and UCP2 in skeletal muscle” value was “increased”.

B2: gAd: C-terminal globular domain of adiponectin, recombinant histidine-tagged fusion protein (protein, listed as Homo sapiens)
chain: AFSVGLETYVTIPNMPIRFTKIFYNQQNHYDGSTGKFHCNIPGLYYFAYHITVYMKDVKVSLFKKDKAMLFTYDQYQENNVDQASGSVLLHLEVGDQVWLQVYGEGERNGLYADNDNDSTFTGFLL
modifications: CDS (1)..(735)
On to B2, for which, in the data set on lipoatrophic mice [2] (setting [10]), the “Liver TG content” value turned out to be 13.81 ± 0.91 mg/g tissue, the “Serum FFA” value is 0.43 ± 0.14 mEq/L, the “Serum TG” value is 100.3 ± 17.5 mg/dL and the “Skeletal muscle TG content” value was determined as 3.88 ± 1.74 mg/g tissue. In the data set with lipoatrophic mice [2] (setting [11]), the “expression of CD36, acyl-CoA oxidase (ACO) and uncoupling protein (UCP) 2 in skeletal muscle” value is listed as “increased”; the “expression of PPAR-α in skeletal muscle” value was “increased”. Further, in the data set with lipoatrophic mice [2] (gAd at a low concentration, mRNA (FIG. 10)), the “expression of CD36 in the liver” value was “decreased”. Besides, the “hyperglycemia and hyperinsulinemia (insulin resistance index, FIG. 8)” value in the data set on lipoatrophic mice [2] was “much more potently than full-length adiponectin”. The molecule also had a serum leptin levels in the data set with KKA^y mice [4] of 57.9 ± 5.7 ng/mL. Besides, in the data set with KKA^y mice [4] (gAd 2.5 μg/day), the “ACO activity, liver” value is listed as 2.89 ± 0.35 nmol/mg/min; the “ACO activity, skeletal muscle” value was found to be 0.42 ± 0.04 nmol/mg/min; the “Fatty acid oxidation [14C] palmitate→CO2, liver” value came out at 2.89 ± 0.21 nmol/g/h; the “Fatty acid oxidation [14C] palmitate→CO2, skeletal muscle” value was determined as 4.06 ± 0.44 nmol/g/h. In addition, in the data set with KKA^y mice [4] (gAd 2.5 μg/day), the Rectal temperature came out at 37.7 ± 0.1 °C; the “Serum FFA” value stood at 0.39 ± 0.04 mEq/L; the “Serum TG” value is 96.4 ± 18.3 mg/dL; the “TG content, liver” value is on record as 16.04 ± 0.91 mg/g tissue. The “TG content, skeletal muscle” value with KKA^y mice [4] (gAd 2.5 μg/day) is reported as 8.06 ± 0.61 mg/g tissue. In the data set with KK mice, this molecule yielded a serum leptin levels of 13.4 ± 2.7 ng/mL. Besides, in the data set on C57 mice (C57 mice on high-fat diet), the Food intake turned out to be 6.28 ± 0.51 g/day. Further, in the data set with C57 mice (setting [12]), the WAT weight came to 0.48 ± 0.04 g and the body weight was 20.6 ± 2.1 g. Further, the serum leptin levels in the data set on C57 mice (wild-type mice) was determined as 10.4 ± 2.6 ng/mL. The molecule further registered a serum leptin levels in the data set with db/db mice [5] (db/db mice) of 145.2 ± 14.7 ng/mL.
